The assay concerns the target IL-2Rα (UniProt P01589). As to the kind of experiment: SPR; Biacore, IL-2 receptor proteins immobilised on a CM5 chip; wild-type IL-2 or variant 012 flowed over at stepwise concentrations for 120 s, then blank solution; 1:1 binding fit (steady state affinity for 001 on IL-2Rα).

pKd: −log10 of the molar value.

Chain of IL-2Rα (P01589 22-272): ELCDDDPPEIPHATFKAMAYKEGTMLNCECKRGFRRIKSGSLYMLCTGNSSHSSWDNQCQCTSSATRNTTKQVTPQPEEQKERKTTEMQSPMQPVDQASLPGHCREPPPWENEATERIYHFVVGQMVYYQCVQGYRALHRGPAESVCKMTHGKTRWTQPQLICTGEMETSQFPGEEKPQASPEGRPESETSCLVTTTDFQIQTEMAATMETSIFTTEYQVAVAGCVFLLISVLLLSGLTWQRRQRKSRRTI

For wild-type IL-2 (001) (ligand), the pKd was 7.32.

Values taken from PMC11024467.
